Laboratory results from US20220162261A1 (published 2022).
Blank lines part the entries; values can stand above or below the binder they belong to. Bridge positions count the residues as written; N and C are the ends. Square brackets hold non-standard residues; d marks the D form. Ends that are not written are not given here. Phe(4-tBu) = CC(C)(C)c1ccc(C[C@H](N)C(=O)O)cc1; 2Nal = N[C@@H](Cc1ccc2ccccc2c1)C(=O)O; NMeR = CN[C@@H](CCCNC(=N)N)C(=O)O; β3hE = N[C@@H](CCC(=O)O)CC(=O)O; Pen = CC(C)(S)[C@H](N)C(=O)O

Key:
[1] = target: human α4β7 integrin on cells (human) (UniProt P13612); assay: PBMC memory T cell adhesion
[2] = target: α4β1 (R&D Systems #5668-A4) (UniProt P13612); assay: competition ELISA vs VCAM-1
[3] = target: mouse α4β7 integrin on TK1 cells (mouse) (UniProt Q00651); assay: TK1 cell adhesion to MAdCAM-1
[4] = target: rh integrin α4β7 (R&D Systems #5397-A30) (human) (UniProt P13612); assay: competition ELISA vs MAdCAM-1
[5] = target: human α4β1 integrin on cells (human) (UniProt P13612); assay: Jurkat cell adhesion to VCAM-1
[6] = target: human α4β7 integrin on cells (human) (UniProt P13612); assay: RPMI8866 cell adhesion to MAdCAM-1
[7] = target: T1, human α4β7 integrin on cells (human, UniProt P13612 34-1032; P26010 20-798); assay: α4β7 T cells
T1 construct: whole, on cells; also called α4β7 cell (Hu); RPMI8866 cells

[8] = target: T2, mouse α4β7 integrin on TK1 cells (mouse, UniProt Q00651 41-1039; P26011 20-806); assay: TK1 cell adhesion to MAdCAM-1
T2 construct: whole, on cells; also called α4β7 cell (Mu); Cell Adhesion α4β7 Mouse

[9] = target: T1, human α4β7 integrin on cells; assay: RPMI8866 cell adhesion to MAdCAM-1
[10] = target: T3, α4β1 (R&D Systems #5668-A4) (UniProt P13612 34-970; P05556 21-728, limits assumed); assay: competition ELISA vs VCAM-1, 1 mM Mg
T3 construct: bought; also called soluble α4β1
Protocol: The solution was removed by shaking and then blocked with 250 ul of 1% BSA in 1×PBS per well. The wells were then incubated at room temperature for 1 hr with shaking. Each well was then washed once with wash buffer (50 mM Tris-HCl pH7.6, 100 mM NaCL, 1 mM MnCl2 or MgCl2, 0.05% Tween-20). 25 ul of serial dilutions of peptides starting at […] in assay buffer (Assay buffer: 50 mM Tris-HCl pH7.6, 100 mM NaCl, 1 mM MnCl2 or MgCl2, 0.05% Tween-20) was added to each well. Additionally, 25 ul of α4β1 (R&D Systems #5668-A4) was added to each well at a fixed concentration of 120 nM. The final peptide and α4β1 concentrations were […] and 60 nM, respectively. The plates were then incubated at 37° C. for 2 hr. The solution was then removed by shaking, and each well was washed three times with wash buffer. 50 ul of 9F10 antibody at 4 ug/ml (purified mouse anti-human CD49d, BD Bioscience Cat #555502) was then added to each well, and the plate was incubated at room temperature for 1 hr with shaking. The solution was again removed by shaking, and each well was washed three times with wash buffer. 50 ul of peroxidase-conjugated AffiniPure Goat anti-mouse IgG (Jackson immune research cat #115-035-003) diluted in 1:5000 in assay buffer was added to each well. The plate was incubated at room temperature for 30 min with shaking. […] The reaction was stepped with 2N H₂SO₄ and absorbance was read at 450 nm. […]

[11] = target: T4, human αLβ2 integrin on cells (human, UniProt P20701 26-1170; P05107 23-769); assay: memory T cell adhesion to ICAM-1
T4 construct: whole, on cells; also called aLβ2

[12] = target: T5, human α4β1 integrin on cells (human, UniProt P13612 34-1032; P05556 21-798); assay: memory T cell adhesion to VCAM-1
T5 construct: whole, on cells; also called α4β1 cell; Jurkat cells

[13] = target: T6, rh integrin α4β7 (R&D Systems #5397-A30) (human, UniProt P13612 34-970; P26010 20-723); assay: competition ELISA vs MAdCAM-1, 1 mM Mg
T6 construct: bought; coated on a nickel coated plate; also called immobilized α4β7; immobilized α4β7 integrin protein

[14] = target: T1, human α4β7 integrin on cells; assay: memory T cell adhesion to MAdCAM-1, average of 4 donors
[15] = target: T1, human α4β7 integrin on cells; assay: PBMC memory T cell adhesion
[16] = target: T2, mouse α4β7 integrin on TK1 cells; assay: TK1 cell adhesion to MAdCAM-1; remark: listed apart in the source
[17] = target: T6, rh integrin α4β7 (R&D Systems #5397-A30); assay: competition ELISA vs MAdCAM-1
[18] = target: T5, human α4β1 integrin on cells; assay: Jurkat cell adhesion to VCAM-1
[19] = target: T1, human α4β7 integrin on cells; assay: RPMI8866 cell adhesion to MAdCAM-1; remark: listed apart in the source
[20] = target: T1, human α4β7 integrin on cells; assay: PBMC memory T cell adhesion; acetate salt
[21] = target: T3, α4β1 (R&D Systems #5668-A4); assay: competition ELISA vs VCAM-1; acetate salt
[22] = target: T2, mouse α4β7 integrin on TK1 cells; assay: TK1 cell adhesion to MAdCAM-1; acetate salt
[23] = target: T6, rh integrin α4β7 (R&D Systems #5397-A30); assay: competition ELISA vs MAdCAM-1; acetate salt
[24] = target: T1, human α4β7 integrin on cells; assay: RPMI8866 cell adhesion to MAdCAM-1; acetate salt
soluble α4β7 integrin [25] = target: T7, soluble α4β7 integrin (UniProt P13612 34-970; P26010 20-723, limits assumed); assay: SPR
T7 construct: analyte of the SPR experiment

soluble α4β7 integrin [26] = target: T7, soluble α4β7 integrin; assay: SPR, binder on streptavidin chip, soluble α4β7
[27] = target: human α4β7 integrin on cells (human) (UniProt P13612); assay: FACS, human whole blood, Basophils
[28] = target: human α4β7 integrin on cells (human) (UniProt P13612); assay: FACS, human whole blood, Monocytes
[29] = target: human α4β7 integrin on cells (human) (UniProt P13612); assay: FACS, human whole blood, Eosinophils
[30] = target: human α4β7 integrin on cells (human) (UniProt P13612); assay: FACS, human whole blood, Neutrophils
[31] = target: human α4β7 integrin on cells (human) (UniProt P13612); assay: FACS, human whole blood, CD19+ B cells
[32] = target: human α4β7 integrin on cells (human) (UniProt P13612); assay: FACS, human whole blood, CD4 naïve T cells
[33] = target: human α4β7 integrin on cells (human) (UniProt P13612); assay: FACS, human whole blood, CD8 naïve T cells
[34] = target: human α4β7 integrin on cells (human) (UniProt P13612); assay: FACS, human whole blood, CD4 memory T cells
[35] = target: human α4β7 integrin on cells (human) (UniProt P13612); assay: FACS, human whole blood, CD8 memory T cells
[36] = target: human α4β7 integrin on cells (human) (UniProt P13612); assay: FACS, human whole blood, NK cells CD16+ 56+
soluble α4β7 integrin [37] = target: soluble α4β7 integrin (UniProt P13612); assay: SPR, binder on streptavidin chip, soluble α4β7
[38] = target: T1, human α4β7 integrin on cells; assay: RPMI8866/MAdCAM cell adhesion

T2 sequence (Q00651 41-1039, chain 1 of 2): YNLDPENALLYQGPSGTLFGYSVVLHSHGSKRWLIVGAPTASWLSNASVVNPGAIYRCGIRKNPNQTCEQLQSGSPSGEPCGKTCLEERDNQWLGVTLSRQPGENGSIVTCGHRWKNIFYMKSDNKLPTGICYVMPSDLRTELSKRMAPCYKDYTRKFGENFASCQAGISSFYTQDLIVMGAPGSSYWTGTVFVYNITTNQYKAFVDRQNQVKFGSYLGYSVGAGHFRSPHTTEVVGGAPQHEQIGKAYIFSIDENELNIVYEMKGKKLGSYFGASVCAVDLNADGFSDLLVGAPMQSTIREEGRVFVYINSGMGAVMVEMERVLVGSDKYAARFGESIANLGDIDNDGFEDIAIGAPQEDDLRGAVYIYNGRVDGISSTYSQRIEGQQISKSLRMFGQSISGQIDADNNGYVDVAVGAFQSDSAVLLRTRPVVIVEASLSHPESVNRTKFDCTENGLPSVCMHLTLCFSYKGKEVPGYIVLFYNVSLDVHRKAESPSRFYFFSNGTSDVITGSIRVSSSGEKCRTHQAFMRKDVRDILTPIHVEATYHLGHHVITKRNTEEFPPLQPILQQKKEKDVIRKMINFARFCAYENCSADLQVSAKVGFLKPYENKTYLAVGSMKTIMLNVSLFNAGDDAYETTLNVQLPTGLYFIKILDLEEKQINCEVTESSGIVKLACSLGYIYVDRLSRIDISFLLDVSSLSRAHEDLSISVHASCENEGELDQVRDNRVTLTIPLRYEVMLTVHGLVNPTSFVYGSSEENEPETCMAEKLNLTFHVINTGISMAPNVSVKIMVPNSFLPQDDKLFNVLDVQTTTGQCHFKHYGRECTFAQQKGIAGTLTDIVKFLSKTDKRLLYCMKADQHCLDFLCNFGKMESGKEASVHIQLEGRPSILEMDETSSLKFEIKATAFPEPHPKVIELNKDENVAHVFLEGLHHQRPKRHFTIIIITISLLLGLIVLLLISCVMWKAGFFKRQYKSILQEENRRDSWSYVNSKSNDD
T2 sequence (P26011 20-806, chain 2 of 2): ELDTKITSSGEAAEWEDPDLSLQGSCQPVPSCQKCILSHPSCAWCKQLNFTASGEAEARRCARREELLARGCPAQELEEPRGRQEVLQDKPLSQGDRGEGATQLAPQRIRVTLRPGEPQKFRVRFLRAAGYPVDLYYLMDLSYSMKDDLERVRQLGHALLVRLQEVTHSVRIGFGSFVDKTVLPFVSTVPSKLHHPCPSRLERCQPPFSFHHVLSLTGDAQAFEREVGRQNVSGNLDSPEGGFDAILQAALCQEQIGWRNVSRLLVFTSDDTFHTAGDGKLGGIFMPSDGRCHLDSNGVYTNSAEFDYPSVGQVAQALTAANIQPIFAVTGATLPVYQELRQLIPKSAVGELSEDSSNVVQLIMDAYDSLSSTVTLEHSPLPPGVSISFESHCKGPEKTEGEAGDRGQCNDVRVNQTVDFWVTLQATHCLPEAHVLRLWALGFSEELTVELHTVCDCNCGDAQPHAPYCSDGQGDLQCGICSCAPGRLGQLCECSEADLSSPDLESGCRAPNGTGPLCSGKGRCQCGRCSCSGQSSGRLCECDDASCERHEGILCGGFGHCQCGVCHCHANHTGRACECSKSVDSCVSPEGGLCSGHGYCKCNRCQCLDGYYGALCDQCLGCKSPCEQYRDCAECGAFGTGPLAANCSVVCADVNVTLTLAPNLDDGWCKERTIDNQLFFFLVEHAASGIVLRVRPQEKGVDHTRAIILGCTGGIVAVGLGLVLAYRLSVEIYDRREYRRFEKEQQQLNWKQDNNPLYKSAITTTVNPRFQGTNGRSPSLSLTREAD
Sequence of mouse α4β7 integrin on TK1 cells (mouse) (Q00651 41-1039, chain 1 of 2): as the sequence (Q00651 41-1039, chain 1 of 2) above
Sequence of mouse α4β7 integrin on TK1 cells (mouse) (P26011 20-806, chain 2 of 2, further chain): as the sequence (P26011 20-806, chain 2 of 2) above
T4 sequence (P20701 26-1170, chain 1 of 2): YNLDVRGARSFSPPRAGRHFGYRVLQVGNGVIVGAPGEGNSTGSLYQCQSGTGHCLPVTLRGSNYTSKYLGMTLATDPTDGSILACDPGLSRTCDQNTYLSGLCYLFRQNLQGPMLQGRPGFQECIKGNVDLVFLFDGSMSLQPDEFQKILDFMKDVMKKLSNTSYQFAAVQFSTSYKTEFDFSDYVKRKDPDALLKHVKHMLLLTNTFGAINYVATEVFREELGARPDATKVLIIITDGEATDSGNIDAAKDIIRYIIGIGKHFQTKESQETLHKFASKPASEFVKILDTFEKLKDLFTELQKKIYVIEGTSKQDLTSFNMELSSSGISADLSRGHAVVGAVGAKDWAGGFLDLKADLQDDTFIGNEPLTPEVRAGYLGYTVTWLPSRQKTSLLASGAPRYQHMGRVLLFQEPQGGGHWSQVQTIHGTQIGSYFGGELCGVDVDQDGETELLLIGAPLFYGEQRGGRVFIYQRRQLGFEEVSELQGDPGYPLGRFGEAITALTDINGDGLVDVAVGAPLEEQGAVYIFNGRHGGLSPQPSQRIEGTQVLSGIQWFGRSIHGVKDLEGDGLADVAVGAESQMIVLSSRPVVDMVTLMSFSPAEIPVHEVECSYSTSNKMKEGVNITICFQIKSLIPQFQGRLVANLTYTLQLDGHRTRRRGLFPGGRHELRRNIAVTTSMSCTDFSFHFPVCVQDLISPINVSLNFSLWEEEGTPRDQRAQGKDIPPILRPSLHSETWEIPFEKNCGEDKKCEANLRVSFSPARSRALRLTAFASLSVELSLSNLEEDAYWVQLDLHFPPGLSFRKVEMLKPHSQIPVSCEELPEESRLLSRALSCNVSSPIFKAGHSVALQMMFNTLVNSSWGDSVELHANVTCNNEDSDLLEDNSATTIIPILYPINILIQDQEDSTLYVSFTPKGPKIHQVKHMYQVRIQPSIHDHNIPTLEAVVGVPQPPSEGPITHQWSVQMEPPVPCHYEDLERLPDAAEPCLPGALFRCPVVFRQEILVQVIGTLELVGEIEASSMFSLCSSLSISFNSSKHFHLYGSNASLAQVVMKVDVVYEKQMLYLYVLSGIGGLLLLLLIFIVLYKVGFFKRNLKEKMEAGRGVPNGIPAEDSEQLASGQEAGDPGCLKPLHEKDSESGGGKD
T4 sequence (P05107 23-769, chain 2 of 2): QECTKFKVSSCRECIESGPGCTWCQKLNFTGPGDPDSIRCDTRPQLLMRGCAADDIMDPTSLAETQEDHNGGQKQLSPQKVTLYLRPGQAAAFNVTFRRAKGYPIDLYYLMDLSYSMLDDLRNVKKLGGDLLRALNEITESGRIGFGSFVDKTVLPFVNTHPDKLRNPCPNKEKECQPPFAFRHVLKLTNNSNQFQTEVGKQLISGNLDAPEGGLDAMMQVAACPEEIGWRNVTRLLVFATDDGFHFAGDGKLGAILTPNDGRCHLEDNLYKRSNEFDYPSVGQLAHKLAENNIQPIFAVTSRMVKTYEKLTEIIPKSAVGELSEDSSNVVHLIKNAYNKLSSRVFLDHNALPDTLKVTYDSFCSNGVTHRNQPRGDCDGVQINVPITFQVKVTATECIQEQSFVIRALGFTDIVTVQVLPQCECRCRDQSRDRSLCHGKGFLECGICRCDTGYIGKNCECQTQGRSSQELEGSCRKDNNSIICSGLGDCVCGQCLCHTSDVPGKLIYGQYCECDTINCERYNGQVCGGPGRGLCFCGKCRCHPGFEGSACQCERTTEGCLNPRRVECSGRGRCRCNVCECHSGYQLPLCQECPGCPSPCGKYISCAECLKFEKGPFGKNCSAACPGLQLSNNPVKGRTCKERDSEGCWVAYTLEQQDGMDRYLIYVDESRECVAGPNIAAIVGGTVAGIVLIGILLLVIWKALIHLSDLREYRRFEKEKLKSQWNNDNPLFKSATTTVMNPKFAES

IC50 [1]: 517 nM
IC50 [2]: 200 nM
IC50 [3]: 60 nM
IC50 [4]: 11 nM
IC50 [5]: > 100 µM
IC50 [6]: 40 nM
B1: SEQ ID NO: 210 (peptide)
peptide: Ac-[Pen][NMeR]SDTL[Pen][2Nal]E[dK]-NH2
modifications: disulfide 1-7
SMILES: CC(=O)N[C@@H]1C(=O)N(C)[C@@H](CCCNC(=N)N)C(=O)N[C@@H](CO)C(=O)N[C@@H](CC(=O)O)C(=O)N[C@@H]([C@@H](C)O)C(=O)N[C@@H](CC(C)C)C(=O)N[C@H](C(=O)N[C@@H](Cc2ccc3ccccc3c2)C(=O)N[C@@H](CCC(=O)O)C(=O)N[C@H](CCCCN)C(N)=O)C(C)(C)SSC1(C)C

IC50 [7]: 1 nM
IC50 [8]: 0.5 nM
IC50 [9]: 0.72 nM
IC50 [10]: > 10 µM
IC50 [11]: > 100 µM
IC50 [12]: > 100 µM
IC50 [13]: 3 nM
IC50 [14]: 1.3 nM
B2: Peptide X (peptide)
peptide: Ac-[Pen][NMeR]SDTL[Pen][Phe(4-tBu)][β3hE][dK]
modifications: disulfide 1-7; not fully specified (residue 10); printed as [Ac-Pen-(N-Me-Arg)-Ser-Asp-Thr-Leu-Pen-Phe(4-tBu)-(β-homoGlu)-(D-Lys)]2-DIG; also: homodimer via DIG linker on D-Lys side chains
notes: also called Compound X

IC50 [15]: ≤ 10 nM
IC50 [16]: ≤ 10 nM
IC50 [17]: ≤ 10 nM
IC50 [18]: > 100 µM
IC50 [19]: ≤ 10 nM
IC50 [20]: ≤ 10 nM
IC50 [21]: > 500 nM
IC50 [22]: ≤ 10 nM
IC50 [23]: ≤ 10 nM
IC50 [24]: ≤ 10 nM
B3: SEQ ID NO: 132 (peptide)
peptide: Ac-[Pen][NMeR]SDTL[Pen][Phe(4-tBu)][β3hE][dK]-NH2
modifications: disulfide 1-7; not fully specified (residue 10); printed as (Ac Pen N-Me-R S D T L Pen F(4tBu) b-H-E k NH2)2 DIG, disulfide Pen-Pen; also: homodimer, two subunits joined by DIG linker
notes: the second listing is the acetate salt

fold lower KD than biotin-labeled vedolizumab (soluble α4β7 integrin [25]): 3.8 fold
Kd (soluble α4β7 integrin [26]): 15.4 nM
koff (soluble α4β7 integrin [26]): 1.73e-05 s⁻¹
kon (soluble α4β7 integrin [26]): 1120 M⁻¹ s⁻¹
B4: Peptide X-biotin (peptide)
peptide: Ac-[Pen][NMeR]SDTL[Pen][Phe(4-tBu)][β3hE][dK]
modifications: disulfide 1-7; not fully specified (residue 10); also: dimer of two subunits joined by a linker at D-Lys10, biotin attached via PEG linker, position not given here

Percent positive staining [27]: 86%
Percent positive staining [28]: 7%
Percent positive staining [29]: 91%
Percent positive staining [30]: 0.45%
Percent positive staining [31]: 85%
Percent positive staining [32]: 55%
Percent positive staining [33]: 53%
Percent positive staining [34]: 22%
Percent positive staining [35]: 36%
Percent positive staining [36]: 42%
Half-life for dissociation (soluble α4β7 integrin [37]): 43 min
Kd (soluble α4β7 integrin [37]): 59.5 nM
koff (soluble α4β7 integrin [37]): 0.000266 s⁻¹
kon (soluble α4β7 integrin [37]): 4470 M⁻¹ s⁻¹
B5: biotin-labeled vedolizumab antibody (antibody, INN chains, looked up, V domains shown)
VH: QVQLVQSGAEVKKPGASVKVSCKGSGYTFTSYWMHWVRQAPGQRLEWIGEIDPSESNTNYNQKFKGRVTLTVDISASTAYMELSSLRSEDTAVYYCARGGYDGWDYAIDYWGQGTLVTVSS
VL: DVVMTQSPLSLPVTPGEPASISCRSSQSLAKSYGNTYLSWYLQKPGQSPQLLIYGISNRFSGVPDRFSGSGSGTDFTLKISRVEAEDVGVYYCLQGTHQPYTFGQGTKVEIKR
modifications: biotin label

IC50 [2]: 70 nM
IC50 [3]: 2.5 nM
IC50 [4]: 2 nM
IC50 [5]: > 100 µM
IC50 [6]: 2.5 nM
Binder: Ac-[Pen][NMeR]SDTL[Pen][2Nal]E[dK]-NH2 (disulfide 1-7; also: dimer (…)2 DIG, attachment not given here) [SEQ ID NO: 212]

IC50 [38]: 0.15 nM
B6: Peptide X Alexa 647 conjugate (peptide)
peptide: Ac-[Pen][NMeR]SDTL[Pen][Phe(4-tBu)][β3hE][dK]
modifications: disulfide 1-7; not fully specified (residue 10); also: Alexa 647 label, position not given here
